Patent publication US20190376053A1

What was measured:
[1] = molecular target: mini-collagen peptide H-Gly-Pro-Arg-Gly-(Pro-Hyp-Gly)12-NH2; assay: SPR (Biacore), peptide immobilized, equilibrium fit, apparent KD
[2] = molecular target: mini-collagen peptide H-Gly-Pro-Arg-Gly-(Pro-Hyp-Gly)12-NH2; assay: SPR (Biacore); ratio of KD, ColHS2bS3 = 1.00
[3] = molecular target: collagen fibril (porcine skin fiber, Nippi, Inc) (porcine); assay: collagen fibril binding assay (spin column, SDS-PAGE of the unbound protein, Scatchard plot)

Row | Substance | Kd [1] [µM] | Ratio [2] | Kd [3] [µM]
1 | collagen-binding domain s3b derived from Clostridium histolyticum class I collagenase ColG (from UniProt Q9X721 1003-1118) | 45.4 | 0.102 | 
2 | collagen-binding domain s3a derived from Clostridium histolyticum class I collagenase ColG (from UniProt Q9X721 886-1003) |  |  | 100
3 | tandem collagen-binding domain (s3a-s3b) derived from Clostridium histolyticum class I collagenase ColG (from UniProt Q9X721 886-1118) | 44.6 | 0.1 | 
